Laboratory results published in US20160039945A1 (Amgen, published 2016).

B1: 131D12 (antibody, human IgG2, lambda, V domains shown)
VH: QGQLVESGGGVVQPGRSLRLSCAASGFTFSSYGMHWVRQAPGKGLEWVAVIWHDGSNKYYADSVKGRFTISRDNSKNTLYLQMNSLRAEDTAVYYCARVVPDNWNQDYYGMDVWGQGTTVTVSS
VL: SYELTQPPSVSVSPGQTASITCSGDKLGDKYACWFQQKPGQSPVLVIYQDSKRPFGIPDRFSGSKSGNTATLTISGTQAMEEADYYCQAWDSSTAVFGGGTKLTVLG
notes: Fully human XenoMouse antibody; also called L3/H3; VL3/VH2
B2: 27B2 (antibody, human IgG2, lambda, V domains shown)
VH: QVQLVESGGGVVQPGRSLRLSCAASGFTFSSYGMHWVRQAPGKGLEWVAAIWYDGSNKYYAESVKGRFTISRDNSKYTLYLQVNSLRAEDTAVYYCARRGGLAARPGGLDVWGQGTTVTVAS
VL: SYELTQPPSVSVSPGQTISISCSGDKLGDKNACWYQQKPGQSPGLVIYQDSKRPLGIPARFSGSNSGNTATLTISGTQAMDEADYYCQAWDISTVVFGGGTKLTVLG
notes: Fully human XenoMouse antibody; Tested as hybridoma supernatant, the VH ends '...TTVTV' without the final 'SS'; also called 27B2.6; L4/H4
B3: 101F7 (antibody, human IgG2, lambda, V domains shown)
VH: QVQLVQSGAEVKKPGASVKVSCKASGYTFSSYGISWVRQAPGQGLEWMGWISAYNGNTNYAQKFQGRVTMTTDTSTSTAYMELRSLRSDDTAVYYCAREVRLAARPDHYYGMDVWGQGTTVTVSS
VL: QSVLTQPPSVSAAPGQKVTISCSGSSSNIGINYVSWYQLLPGTAPKLLIYDNNKRPLGIPDRFSGSKSGTSATLGITGLQTGDETDYYCGTWDSSLSAWVFGGGTKLTVLG
notes: Fully human XenoMouse antibody; also called L1/H1; VL1/VH1
B4: 103B7 (antibody, human IgG2, lambda, V domains shown)
VH: QVQLVQSGAEVKKPGASVKVSCKASGYTFSSYGISWVRQAPGQGLEWMGWISAYNGNTNYAQKFQGRVTMTTDTSTSTAYMELRSLRSDDTAVYYCAREVRLAARPDHYYGMDVWGQGTTVTVSS
VL: QSVLTQPPSVSAAPGQKVTISCSGSSSNIGINYVSWYQLLPGTAPKLLIYDNNKRPLGIPDRFSGSKSGTSVTLGITGLQTGDEADYFCGTWDSNLSAWVFGGGTKLTVLG
notes: Fully human XenoMouse antibody; also called L2/H2; VL2/VH1

Legend:
human D374Y PCSK9 mutant = biological target: T1, human D374Y PCSK9 mutant (human, UniProt Q8NBP7 31-692, limits assumed); test: receptor-ligand blocking ELISA: supernatant pre-incubated with biotinylated D374Y PCSK9, binding to captured LDLR
T1 construct: It was biotinylated in the assay; also called biotinylated human D374Y PCSK9
T1 sequence (Q8NBP7 other isoform, or with tags, fused parts or gaps D374Y D374Y limits assumed): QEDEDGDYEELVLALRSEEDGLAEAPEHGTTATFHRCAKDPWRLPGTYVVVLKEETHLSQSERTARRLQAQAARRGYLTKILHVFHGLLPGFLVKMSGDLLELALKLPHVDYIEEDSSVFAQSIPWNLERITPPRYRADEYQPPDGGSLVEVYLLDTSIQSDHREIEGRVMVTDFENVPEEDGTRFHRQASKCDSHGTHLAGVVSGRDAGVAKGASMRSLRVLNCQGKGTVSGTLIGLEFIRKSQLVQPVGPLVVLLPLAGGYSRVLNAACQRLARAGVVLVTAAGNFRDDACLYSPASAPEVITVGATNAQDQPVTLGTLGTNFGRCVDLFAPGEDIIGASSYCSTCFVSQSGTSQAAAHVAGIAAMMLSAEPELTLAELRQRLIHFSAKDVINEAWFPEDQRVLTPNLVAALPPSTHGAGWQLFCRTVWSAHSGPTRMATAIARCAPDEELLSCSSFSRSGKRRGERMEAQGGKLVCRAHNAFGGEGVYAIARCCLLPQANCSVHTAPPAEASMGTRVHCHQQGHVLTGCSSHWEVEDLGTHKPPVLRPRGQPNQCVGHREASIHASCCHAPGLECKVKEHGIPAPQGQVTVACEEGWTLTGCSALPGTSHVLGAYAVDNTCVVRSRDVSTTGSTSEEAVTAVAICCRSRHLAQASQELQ
Protocol: The plates were coated with goat anti-LDLR (R&D Cat #AF2148) at 2 μg/ml in 1λPBS/0.05% Azide at a volume of 40 μl/well. The plates were incubated at 4° C. overnight. The plates were then washed using a Titertek plate washer (Titertek, Huntsville, Ala.). A 3-cycle wash was performed. The plates were blocked with 90 μl of 1λ PBS/1% milk and incubated approximately 30 minutes at room temperature. The plates were then washed using the Titertek plate washer. A 3-cycle wash was performed. […] The plates were then incubated for 1 hour and 10 minutes at room temperature. […] The plates were then pre-incubated for about 1 hour and 30 minutes at room temperature. Next, the plates were washed using the Titertek plate washer operated using a 3-cycle wash. 50 μl/well of the pre-incubated mixture was transferred onto the LDLR coated ELISA plates and incubated for 1 hour at room temperature. To detect LDLR-bound b-PCSK9, 40 μl/well streptavidin HRP at 500 ng/ml in assay diluent was added to the plates. The plates were incubated for 1 hour at room temperature. The plates were again washed using a Titertek plate washer. A 3-cycle wash was performed. Finally, 40 μl/well of One-step TMB (Neogen, Lexington, Ky.) was added to the plate and was quenched with 40 μl/well of 1N hydrochloric acid after 30 minutes at room temperature. OD's were read immediately at 450 nm using a Titertek plate reader.

cynomolgus PCSK9 [1] = biological target: T2, cynomolgus PCSK9 (cynomolgus monkey, UniProt A8T662 31-692 (Macaca nemestrina entry), limits assumed); test: solution equilibrium binding assay on BIAcore, pH 5.5
T2 construct: also called cyPCSK9; cynomolgus monkey PCSK9
T2 sequence (A8T662 31-692 K611R limits assumed): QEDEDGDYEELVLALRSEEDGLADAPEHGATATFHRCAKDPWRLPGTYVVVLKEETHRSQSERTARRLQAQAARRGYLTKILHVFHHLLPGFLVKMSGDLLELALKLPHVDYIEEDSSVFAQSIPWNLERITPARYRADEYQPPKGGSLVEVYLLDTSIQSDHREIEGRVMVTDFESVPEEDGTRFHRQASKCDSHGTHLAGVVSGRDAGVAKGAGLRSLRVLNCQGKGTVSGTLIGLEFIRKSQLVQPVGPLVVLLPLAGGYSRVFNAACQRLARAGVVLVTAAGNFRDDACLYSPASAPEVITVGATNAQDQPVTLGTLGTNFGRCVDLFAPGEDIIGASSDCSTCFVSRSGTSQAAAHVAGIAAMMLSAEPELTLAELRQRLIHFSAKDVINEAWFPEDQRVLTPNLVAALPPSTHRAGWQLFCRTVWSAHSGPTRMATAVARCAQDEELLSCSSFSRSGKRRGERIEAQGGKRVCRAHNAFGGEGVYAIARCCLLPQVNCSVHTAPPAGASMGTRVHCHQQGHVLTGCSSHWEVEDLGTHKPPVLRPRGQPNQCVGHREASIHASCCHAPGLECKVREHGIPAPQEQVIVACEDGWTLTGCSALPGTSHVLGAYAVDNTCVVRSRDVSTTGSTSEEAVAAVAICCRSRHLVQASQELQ
Protocol: (§1) Binding of anti-PCSK9 antibodies to human and cynomolgus monkey PCSK9 was measured by solution equilibrium binding assay on BIAcore. Antibody was immobilized on the second flow cell of a CM5 chip using amine coupling (reagents provided by GE Healthcare, Piscataway, N.J.) with an approximate density of 6000 RU. The first flow cell was used as a background control. For assay at pH 7.4, 0.1 nM or 1.0 nM of PCSK9 were mixed with serial dilutions of antibody (ranging from 0.003 nM to 50 nM) in PBS plus 0.1 mg/mL BSA, 0.005% P20 and incubated at room temperature for 4 hours. For assay at pH 5.5, 0.1 nM or 1.0 nM of PCSK9 were mixed with serial dilutions of antibody (ranging from 0.003 nM to 50 nM) in 10 mM Sodium Citrate, pH 5.5, plus 150 mM NaCl, 0.1 mg/mL BSA, 0.005% P20 and incubated at room temperature for 4 hours. Binding of free PCSK9 in the mixed solutions was measured by injecting over the antibody coated chip surface. One hundred percent PCSK9 binding signal on the antibody surface was determined in the absence of antibody in the solution. A decreased PCSK9 binding response with increasing concentrations of antibody in solution indicated PCSK9 was binding to the antibody, preventing PCSK9 from binding to the immobilized antibody surface. Plotting the PCSK9 binding signal versus antibody concentration, the KD was obtained from nonlinear regression of the competition curves using an n-curve one-site homogeneous binding model provided in the KinExA Pro software.

[2] = biological target: T3, human proprotein convertase subtilisin kexin type 9 (self-cleaved, mature, secreted PCSK9) (human, UniProt Q8NBP7 31-692); test: as above
T3 construct: Self-cleavage means the pro-domain and the catalytic/C-terminal part are separate, associated polypeptides; also called huPCSK9; wild-type PCSK9
T3 sequence (Q8NBP7 other isoform, or with tags, fused parts or gaps): as the sequence (Q8NBP7 other isoform, or with tags, fused parts or gaps D374Y D374Y limits assumed) above, with Y344D counted along it
Protocol: as §1

cynomolgus PCSK9 [3] = biological target: T2, cynomolgus PCSK9; test: solution equilibrium binding assay on BIAcore, pH 7.4
Protocol: as §1

[4] = biological target: T3, human proprotein convertase subtilisin …; test: as above
Protocol: as §1

[5] = biological target: T3, human proprotein convertase subtilisin …; test: competition ELISA, supernatant pre-incubated with b-PCSK9; competitor 26H5 coated on plate
Protocol: (§2) Hybridoma supernatants were then assayed for direct binding competition. […] The next day each hybridoma supernatant was preincubated with 100 ng/ml b-PCSK9 at a 1:5 final dilution. These samples were then incubated for 2 hours at RT. The precoated antibody capture plates were then washed and the pre-incubated samples of hybridoma Antibody supernatants and B-PCSK9 were added to the plates and incubated for 1 hour at room temperature. Detection of bound b-PCSK9 was done with streptavidin HRP (Thermo P21126) at 500 ng/ml in 1×PBS/1% non fat skim milk. Incubated for 1 hour then added chromogenic substrate TMB, 3,3′,5,5′-tetramethylbenzidine, 40 ul/well incubated anywhere from 15 minutes to 60 minutes depending on OD then stopped with one molar hydrochloric acid. Optical density at 450 nm read on Multiskan Ascent reader. A % Inhibition was then calculated by comparing the amount of bound b-PCSK9 after preincubation with anti-PCSK9 hybridoma sups versus negative control wells using irrelevant hybridoma supernatants. % Inhibition=1−(OD of Ab supernatant/B-PCSK9/OD of Neg. control supernatant/B-PCSK9).

[6] = biological target: T3, human proprotein convertase subtilisin …; test: ELISA, hybridoma supernatant on neutravidin-captured biotinylated PCSK9
Protocol: A primary screen for antibodies which bind to wild-type PCSK9 was performed. The primary screen was performed on two harvests. The primary screen comprised an ELISA assay and was performed using the following protocol:
The plates were coated with neutravadin at a concentration of 4 μg/ml in 1×PBS/0.05% Azide, at a volume of 40 μl/well. The plates were incubated at 4° C. overnight. The plates were then washed using a Titertek plate washer (Titertek, Huntsville, Ala.). A 3-cycle wash was performed. The plates were blocked with 90 μl of 1×PBS/1% milk and incubated approximately 30 minutes at room temperature. The plates were then washed. Again, a 3-cycle wash was performed. The capture sample was biotinylated-PCSK9, and was added at 0.9 μg/ml in 1×PBS/1% milk/10 mM Ca²⁺ at a volume of 40 μl/well. The plates were then incubated for 1 hour at room temperature. Next, the plates were washed using the Titertek plate washer operated using a 3-cycle wash. 10 μl of supernatant was transferred into 40 μl of 1×PBS/1% milk/10 mM Ca²⁺ and incubated 1.5 hours at room temperature. Again the plates were washed using the Titertek plate washer operated using a 3-cycle wash. 40 μl/well of Goat anti-Human IgG Fc HRP at a concentration of 100 ng/ml (1:4000) in 1λ PBS/1% milk/10 mM Ca²⁺ was added to the plate and was incubated 1 hour at room temperature. The plates were washed once again, using a 3-cycle wash. Finally, 40 μl/well of One-step TMB (Neogen, Lexington, Ky.) was added to the plate and quenching with 40 μl/well of 1N hydrochloric acid was performed after 30 minutes at room temperature. OD's were read immediately at 450 nm using a Titertek plate reader. Positive binding was determined as 3 times the average of signal of the negative control which was hybridoma supernatant.

[7] = biological target: T3, human proprotein convertase subtilisin …; test: competition ELISA, supernatant pre-incubated with b-PCSK9; competitor 31H4 coated on plate
Protocol: as §2

Binder	% R-L Inhibition (human D374Y PCSK9 mutant)	Kd (cynomolgus PCSK9 [1])	Kd [2]	Kd (cynomolgus PCSK9 [3])	Kd [4]	% inhibition of 26H5 Binding [5]	Early primary screen OD [6]	Late primary screen OD [6]	% inhibition of 31H4 Binding [7]
B1	92%	3.1 nM	0.12 nM	1.5 nM	0.067 nM	90%	3.3 OD (450 nm)	3.56 OD (450 nm)	89%
B2	93%	–	–	–	–	–	4.9 OD (450 nm)	4.2 OD (450 nm)	–
B3	94%	0.008 nM	0.016 nM	0.008 nM	0.006 nM	92%	3.45 OD (450 nm)	3.91 OD (450 nm)	82%
B4	93%	0.022 nM	0.018 nM	0.011 nM	0.007 nM	90%	4.03 OD (450 nm)	3.46 OD (450 nm)	79%
